This note sets out measurements from article PMC9636575, “MqsR is a noncanonical microbial RNase toxin that is inhibited by antitoxin MqsA via steric blockage of substrate binding” (The Journal of Biological Chemistry, 2022).

This assay concerns the target T1, MqsR (E. coli, UniProt Q46865 1-98).
T1 construct: also called MqsR toxin; 15N-labeled MqsR
The assay is described as follows: NMR titration; unlabeled MqsA(1-76) titrated into 15N-labeled MqsR (50 uM); 2D [1H,15N] HSQC; 298 K; 50 mM NaCl, 20 mM Na phosphate pH 6.5, 0.5 mM TCEP, 10% D2O. The note with it: both partners purified.

T1 sequence (Q46865 whole entry): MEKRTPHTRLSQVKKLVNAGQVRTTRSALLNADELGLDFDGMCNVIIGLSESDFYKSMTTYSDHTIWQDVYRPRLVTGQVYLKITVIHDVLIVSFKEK

B1: N-terminal toxin-binding domain of MqsA (residues 1-76) (domain or fragment)
chain: MKCPVCHQGEMVSGIKDIPYTFRGRKTVLKGIHGLYCVHCEESIMNKEESDAFMAQVKAFRASVNAETVAPEFIVK
notes: also called MqsA_(1-76); unlabeled MqsA_(1-76)
B1: the binding result is on record as “binds”.
